# Measurements published in patent US20250361297A1, “ANTI- SIGLEC-15 BINDING MOLECULES AND METHODS OF USE” (ADAPTAM THERAPEUTICS, S.L., priority 2024, published 2025).
# “Also recorded” adds a separate entry of the source.
# T1: human Siglec-15 (Homo sapiens, UniProt Q6ZMC9)
# T1 construct: expressed in transfected cells
# T1 sequence (Q6ZMC9 20-328): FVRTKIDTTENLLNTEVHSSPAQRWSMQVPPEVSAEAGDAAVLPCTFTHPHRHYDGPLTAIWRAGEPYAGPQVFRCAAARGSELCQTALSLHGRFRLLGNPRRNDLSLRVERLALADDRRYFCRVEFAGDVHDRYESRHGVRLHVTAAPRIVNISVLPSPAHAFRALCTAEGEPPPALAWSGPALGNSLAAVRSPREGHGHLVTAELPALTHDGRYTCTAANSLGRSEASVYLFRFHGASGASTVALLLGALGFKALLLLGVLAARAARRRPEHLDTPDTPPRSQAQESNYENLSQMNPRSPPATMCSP
# T2: recombinant human Siglec-15 protein (Homo sapiens, UniProt Q6ZMC9)
# T2 construct: purchased Bonopusbio CW70-50 ug
# T2 sequence (Q6ZMC9 20-263 limits assumed): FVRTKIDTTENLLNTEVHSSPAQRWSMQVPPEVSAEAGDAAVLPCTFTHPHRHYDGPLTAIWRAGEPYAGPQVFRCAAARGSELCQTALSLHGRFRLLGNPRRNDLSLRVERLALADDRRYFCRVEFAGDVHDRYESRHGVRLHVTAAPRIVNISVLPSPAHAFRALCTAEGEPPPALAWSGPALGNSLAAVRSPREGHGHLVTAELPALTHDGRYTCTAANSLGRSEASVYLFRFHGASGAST
# Experiments:
# human Siglec-15 = target: T1, human Siglec-15; experiment: Blocking of human Siglec-15 binding to Jurkat cells (flow cytometry); conditions: flow cytometry (FIG. 22)
# Experimental: Blocking assay (Flow cytometry): Briefly, the anti-Siglec-15 antibodies of the disclosure or controls were diluted with human Siglec-15-human Fc protein (Sinobiologicals, 13976-H02H1), at 66.67 nM, and incubated at room temperature for 40 minutes. Then, Jurkat T cells were harvested from cell culture flasks, washed twice, and re-suspended in PBS containing 2% v/v Bovine serum albumin (FACS buffer). Then, 0.5×10^5 cells per well in 96 well-plates were incubated in 100 μL of the antibody/Siglec-15-human Fc mixtures for 40 minutes at 4° C. The plates were washed twice with FACS buffer, and then added and incubated for 40 minutes at 4° C. in dark with 100 μl/well Goat Anti-human IgG (H+L) (1:200 dilution in FACS buffer, Thermofisher). Cells were washed twice and re-suspended in FACS buffer. Fluorescence was measured in a flow cytometer. Data was analyzed using Flowjo and Graphpad Prism software.
# [1] = tested on: truncated second domain (D2) of Siglec-15; experiment: Flow cytometry binding to HEK 293T cells expressing only the truncated second domain (D2) of Siglec-15; set-up: species or system human; conditions: HEK 293T cells expressing only truncated D2; flow cytometry (FIG. 2B, FIG. 17)
# Description: Flow cytometry was used to interrogate the binding of anti-Siglec-15 monoclonal antibodies to cells expressing only a truncated version of Siglec-15 comprising solely of the second domain (D2). This strategy was useful to identify clones that recognize epitopes outside of the canonical sialic acid binding site located in the first domain (D1).
# For the ELISA, antigens were immobilized on high-binding plates, and the full-length IgG1 anti-Siglec-15 antibodies were titrated beginning at a concentration of 10 μg/ml. After washing, an anti-human IgG Fab-specific HRP-conjugated secondary antibody was applied for detection. Palivizumab was included as the negative control. Optical densities were measured to generate binding curves from which EC50 values were derived. […] Flow cytometric analysis was conducted, and fluorescence intensity was used to calculate EC50 values, providing a quantitative assessment of the antibodies' cell surface binding efficacy. […] Antibodies were titrated starting at a concentration of 10 μg/ml and detected with an anti-human Fc-specific secondary antibody to detect bound primary antibodies. The half-maximal effective concentration (EC50) was calculated for each antibody to determine its binding affinity to mouse Siglec-15. Results were analyzed and ranked based on the EC50 values. […]
# [2] = target: T2, recombinant human Siglec-15 protein; experiment: BIACORE surface plasmon resonance binding affinity; conditions: SPR; antibody as ligand, human Siglec-15 as analyte; 1:1 Langmuir model
# Description: Binding affinity determination of anti-Siglec-15 monoclonal antibodies using BIACORE surface plasmon resonance: The purified anti-Siglec-15 monoclonal antibodies (mAbs) were characterized for binding affinity and binding kinetics by Biacore T200 system (GE healthcare, Pittsburgh, PA, USA). Anti-Siglec-15 antibodies were covalently linked to a CM5 chip (carboxy methyl dextran coated chip, GE healthcare, Cat #BR-1005-30) via primary amines, using a standard amine coupling kit provided by Biacore (GE healthcare, Pittsburgh, PA, USA). Un-reacted moieties on the biosensor surface were blocked with ethanolamine. Then, serially diluted recombinant human Siglec-15-his protein (Bonopusbio, CW70-50 ug), 2-fold serial dilution in HBS-EP buffer starting at 80 nM, were respectively flown onto the chip at a flow rate of […]. The antigen-antibody association kinetics was followed for 2 minutes, and the dissociation kinetics was followed for 10 minutes. The association and dissociation curves were fit to a 1:1 Langmuir binding model using BIAcore evaluation software. The dissociation rate (kd) and association constant (ka) rate constants were obtained using Evaluation Software. The equilibrium dissociation constant (KD) was calculated from the ratio of kd over ka.
# osteoclast activation = experiment: Osteoclast activation in vitro (CTX-I in culture medium); type: cell-based; conditions: relative to baseline; control odanacatib 1 μM (FIG. 47)
# [3] = tested on: osteoclast differentiation; experiment: Osteoclast differentiation in vitro (TRACP 5b in culture medium); type: cell-based; conditions: relative to baseline levels; culture medium at day 7 (FIG. 46)
molecule,measurement,setting,value
"S15B1: parental mouse anti-Siglec-15 monoclonal antibody from hybridoma; VH SEQ ID NO: 18, VL SEQ ID NO: 19 (antibody, V domains shown, Clone S15B1 VH; Clone S15B1 VL) VH: QVQLQQSGPELVKPGASVKISCKASGYAFSSSWMNWVKQRPGKGLEWIGRIYPGHGETNYNGKFKDKATVTADKSSSTTYMQLSSLTSEDSAVYFCARVDNSDPYYFDYWGQGTTLTVSS VL: DIVLTQSPASLAVSLGQRATISCRASKSVSTSGYSYMHWYQQKPGQPPKLLIYLASNLESGVPARFSGSGSGTDFTLNIHPVEEEDAATYYCQHGRELPFTFGSGTKLEIK",blocking of binding of human Siglec-15 to Jurkat cells,human Siglec-15,approximately 60%
same,binding to D2 of Siglec-15,[1],displayed binding affinity for D2; also recorded: significant binding to D2
same,ka,[2],4.46e+06 M⁻¹ s⁻¹
same,kd,[2],0.000233 s⁻¹
same,effect on osteoclast activation (CTX-I),osteoclast activation,did not significantly affect
same,effect on osteoclast differentiation (TRACP 5b),[3],did not significantly affect
